The source of these data is PMC10589216, “Lactate dehydrogenase D is a general dehydrogenase for D-2-hydroxyacids and is associated with D-lactic acidosis” (Nature Communications, 2023).

The target in series [1] is T1, mLDHD (Mus musculus, UniProt Q7TNG8, H405A).
T1 construct: gene Ldhd
T1 sequence (Q7TNG8 22-484 H405A): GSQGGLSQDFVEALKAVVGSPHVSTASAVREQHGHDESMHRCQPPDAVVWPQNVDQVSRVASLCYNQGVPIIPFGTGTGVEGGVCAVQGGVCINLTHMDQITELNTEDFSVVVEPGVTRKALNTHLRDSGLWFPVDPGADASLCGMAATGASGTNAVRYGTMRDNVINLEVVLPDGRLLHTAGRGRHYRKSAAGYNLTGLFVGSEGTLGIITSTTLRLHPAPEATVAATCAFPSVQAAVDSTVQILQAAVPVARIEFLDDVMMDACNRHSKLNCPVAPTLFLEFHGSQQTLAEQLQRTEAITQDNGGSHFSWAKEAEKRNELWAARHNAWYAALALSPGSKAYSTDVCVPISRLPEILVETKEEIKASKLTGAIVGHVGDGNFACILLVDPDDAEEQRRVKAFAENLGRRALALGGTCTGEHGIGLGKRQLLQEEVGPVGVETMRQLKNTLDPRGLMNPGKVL
Description: X-ray crystal structure (soak). The series is classed as binding. The note with it: FAD-bound crystals; no Mn2+ at active site; DL mixture soaked.

Series [2] addresses T2, mLDHD (Mus musculus, UniProt Q7TNG8).
T2 construct: gene Ldhd
T2 sequence (Q7TNG8 22-484): T1 sequence (Q7TNG8 22-484 H405A) with A384H
Nature of the series: X-ray crystal structure, […] Å. The note with it: non-covalently bound, co-purified from expression host. The series is classed as binding.

Substrate in series [3]: CCCCCCC(O)C(=O)O
Nature of the series: purified protein. Type of series: biochemical, Mus musculus. The note with it: 50 mM Tris-HCl pH 7.4, 50 μM MnCl2, 200 μM PMS, 100 μM DCIP, 37 °C.

Substrate in series [4]: CCC(C)C(O)C(=O)O
Description: purified protein. Type of series: biochemical, Mus musculus. The note with it: 50 mM Tris-HCl pH 7.4, 50 μM MnCl2, 200 μM PMS, 100 μM DCIP, 37 °C.

Substrate in series [5]: O=C(O)[C@H](O)Cc1ccccc1
Nature of the series: purified protein. The note with it: 50 mM Tris-HCl pH 7.4, 50 μM MnCl2, 200 μM PMS, 100 μM DCIP, 37 °C. Type of series: biochemical, Mus musculus.

Substrate in series [6]: CC(C)[C@@H](O)C(=O)O
Description: purified protein. The series is classed as biochemical, Mus musculus. The settings on record: 50 mM Tris-HCl pH 7.4, 50 μM MnCl2, 200 μM PMS, 100 μM DCIP, 37 °C.

Substrate in series [7]: CC[C@@H](O)C(=O)O
Description: purified protein. The note with it: 50 mM Tris-HCl pH 7.4, 50 μM MnCl2, 200 μM PMS, 100 μM DCIP, 37 °C. Type of series: biochemical, Mus musculus.

Substrate in series [8]: CCCC(O)C(=O)O
Description: purified protein. The settings on record: 50 mM Tris-HCl pH 7.4, 50 μM MnCl2, 200 μM PMS, 100 μM DCIP, 37 °C, racemate, KM calculated on D-isomer concentration. Type of series: biochemical, Mus musculus.

Substrate in series [9]: CC(C)CC(O)C(=O)O
Nature of the series: purified protein. Type of series: biochemical, Mus musculus. The note with it: 50 mM Tris-HCl pH 7.4, 50 μM MnCl2, 200 μM PMS, 100 μM DCIP, 37 °C, racemate, KM calculated on D-isomer concentration.

Substrate in series [10]: CCCCC(O)C(=O)O
Description: purified protein. The series is classed as biochemical, Mus musculus. The note with it: 50 mM Tris-HCl pH 7.4, 50 μM MnCl2, 200 μM PMS, 100 μM DCIP, 37 °C.

Substrate in series [11]: C[C@@H](O)C(=O)O
Nature of the series: purified protein. The settings on record: 50 mM Tris-HCl pH 7.4, 50 μM MnCl2, 200 μM PMS, 100 μM DCIP, 37 °C.

Numbering of substitutions follows the chain as printed.

By Km is commonly meant the concentration of substrate that gives half-maximal velocity. What is called Vmax is the top rate of the reaction or transport when substrate is in excess. One may read the kcat as the maximal rate divided by the concentration of active sites. A word on the kcat/Km: it is the turnover number divided by the Michaelis constant.

Take `CC(C)C[C@@H](O)C(=O)O` (mixture of isomers) [D-2-HIC, D-2-hydroxyisocaproate]: the “X-ray crystal structure (soak)” value on mLDHD [1] was “mLDHDH405A in complex with FAD and D-2-hydroxyisocaproate (PDB 8JDQ)”.

On to `CCC[C@@H](O)C(=O)O` (mixture of isomers) [D-2-HV, D-2-hydroxyvalerate], for which the “X-ray crystal structure (soak)” value at mLDHD [1] was “mLDHDH405A in complex with FAD and D-2-hydroxyvalerate (PDB 8JDN)”.

As to `CCCCCC[C@@H](O)C(=O)O` (mixture of isomers) [D-2-HO, D-2-hydroxyoctanoate], on mLDHD [1], the “X-ray crystal structure (soak)” value is “mLDHDH405A in complex with FAD and D-2-hydroxyoctanoate (PDB 8JDB)”.

Consider `Cc1cc2nc3c(=O)[nH]c(=O)nc-3n(C[C@H](O)[C@H](O)[C@H](O)COP(=O)(O)OP(=O)(O)OC[C@H]3O[C@@H](n4cnc5c(N)ncnc54)[C@H](O)[C@@H]3O)c2cc1C` [FAD], for which, on mLDHD [2], the “X-ray crystal structure, 1.70 Å” value is “mLDHD in complex with FAD (PDB 8JDC)”.

B1: mLDHD (Mus musculus) (protein)
chain: T1 sequence (Q7TNG8 22-484 H405A) with A384H
For B1, the Km is 104.0 ± 9.0 µM in “purified protein [3]”; 16.5 ± 0.1 µM in “purified protein [4]”; 337.0 ± 44.0 µM in the series “purified protein [5]”; 13.9 ± 1.2 µM in “purified protein [6]”; 62.9 ± 2.8 µM in the series “purified protein [7]”; 31.4 ± 2.7 µM in the series “purified protein [8]”. Further, the Km in the series “purified protein [9]” is 16.4 ± 0.7 µM; in the series “purified protein [10]”, 34.9 ± 1.6 µM; in “purified protein [11]” it was 122.0 ± 4.5 µM. Also, the Vmax in the series “purified protein [3]” is 0.409 µmol/min/mg; in the series “purified protein [4]”, 1.01 µmol/min/mg; in the series “purified protein [5]”, 0.788 µmol/min/mg; in the series “purified protein [6]”, 1.11 µmol/min/mg; in “purified protein [7]” it was 1.6 µmol/min/mg; in “purified protein [8]”, 1.12 µmol/min/mg. For the same molecule, the Vmax in “purified protein [9]” is 0.902 µmol/min/mg; in the series “purified protein [10]”, 1.48 µmol/min/mg; in the series “purified protein [11]”, 1.22 µmol/min/mg. The kcat was 0.342 ± 0.00833 s⁻¹ in the series “purified protein [3]”; 0.842 ± 0.01 s⁻¹ in “purified protein [4]”; 0.657 ± 0.03 s⁻¹ in the series “purified protein [5]”; 0.925 ± 0.015 s⁻¹ in the series “purified protein [6]”; 1.33 ± 0.015 s⁻¹ in the series “purified protein [7]”; 0.933 ± 0.0183 s⁻¹ in the series “purified protein [8]”. Further, the kcat in the series “purified protein [9]” was 0.752 ± 0.0133 s⁻¹; in the series “purified protein [10]”, 1.233 ± 0.0117 s⁻¹; in “purified protein [11]”, 1.02 s⁻¹. Moreover, the kcat/Km in the series “purified protein [3]” is 3280 M⁻¹ s⁻¹; in the series “purified protein [4]”, 51000 M⁻¹ s⁻¹; in the series “purified protein [5]”, 1950 M⁻¹ s⁻¹; in the series “purified protein [6]” it was 66500 M⁻¹ s⁻¹; in “purified protein [7]”, 21200 M⁻¹ s⁻¹; in the series “purified protein [8]”, 29700 M⁻¹ s⁻¹. Also, the kcat/Km in the series “purified protein [9]” was 45800 M⁻¹ s⁻¹; in “purified protein [10]” it was 35300 M⁻¹ s⁻¹; in “purified protein [11]” it was 8330 M⁻¹ s⁻¹.
